Experimental data from patent US20150313192.

How the values were obtained:
[1] = system: RELA TALEN11-1R (right monomer) (synthetic (Xanthomonas TALE)?); assay: cell_activity; conditions: TALEN pair mRNA 2 ng/ul zygote injection, 8 of 39 piglets; 21% of embryos tested in vitro; assayed as pair with left monomer; left/right assignment to …
[2] = system: RELA TALEN11-1L (left monomer) (synthetic (Xanthomonas TALE)?); assay: cell_activity; conditions: TALEN pair mRNA 2 ng/ul zygote injection, 8 of 39 piglets; 21% of embryos tested in vitro; assayed as pair with right monomer; left/right assignment to …

Row | Sequence | activity (% edited of piglets born) [1] | activity (% edited of piglets born) [2]
1 | AGTACCCTGAGGCTAT (double strand) [RELA TALEN right half-site] | 21 | 
2 | GCCCCCCCACACAGCTG (double strand) [RELA TALEN left half-site] |  | 21
